In patent US20240150440A1 (LUMEN BIOSCIENCE, published 2024):

What was measured:
[1] = target: T1, SARS-CoV-2 spike protein on pseudotyped lentivirus (Wuhan Reference Pseudovirus) (SARS-CoV-2, UniProt P0DTC2 14-1273); test: cell-based or functional assay
[2] = target: T1, SARS-CoV-2 spike protein on pseudotyped …; test: cell-based or functional assay; remark: listed apart in the source
[3] = target: SARS-CoV-2 Gamma Variant spike protein on pseudotyped lentivirus (SARS-CoV-2 Gamma variant); test: cell-based or functional assay
[4] = target: T2, SARS-CoV-2 Alpha Variant RBD (SARS-CoV-2 Alpha variant); test: ELISA, RBD coated
T2 construct: domain: RBD; coated on ELISA plates

[5] = target: T3, SARS-CoV-2 Delta Variant RBD (SARS-CoV-2 Delta variant); test: ELISA, RBD coated
T3 construct: domain: RBD; coated on ELISA plates

[6] = target: T4, SARS-CoV-2 Gamma Variant RBD (SARS-CoV-2 Gamma variant); test: ELISA, RBD coated
T4 construct: domain: RBD; coated on ELISA plates

[7] = target: T5, SARS-CoV-2 Beta Variant RBD (SARS-CoV-2 Beta variant); test: ELISA, RBD coated
T5 construct: domain: RBD; coated on ELISA plates

[8] = target: T1, SARS-CoV-2 spike protein on pseudotyped …; test: cell-based or functional assay; remark: listed apart in the source
[9] = target: SARS-CoV-2 Delta Variant spike protein on pseudotyped lentivirus (SARS-CoV-2 Delta variant); test: cell-based or functional assay
[10] = target: T1, SARS-CoV-2 spike protein on pseudotyped …; test: cell-based or functional assay; remark: listed apart in the source
[11] = target: T1, SARS-CoV-2 spike protein on pseudotyped …; test: cell-based or functional assay; remark: listed apart in the source

Row | Binder | infectivity % under 10 ug/mL VHH treatment [1] [%] | Pseudovirus neutralization IC50 [2] [nM] | Pseudovirus neutralization IC50 [3] [nM] | EC50 [4] [nM] | EC50 [6] [nM] | EC50 [7] [nM] | Pseudovirus inhibition IC50 [Cont. 6] [10] [nM] | also measured
1 | PP908 MBP-5HVZ-S2a-C4-H6 (VHH, Form: Dimer) VHH: QVQLVESGGGLVQPGGSLRLSCAASGFSESINATAWFRQAPGKQREGVAGLDGGGSDYYSDSVKGRFTISRDNAKNTVYLQMNSLKPEDTAVYYCAAQLTSSFRGYDFTPSNYDYWGQGTQVTVSS | 47.5 | 1620 | 63.1 | 1.74 | 3.75 | 7.42 |  | EC50 [5]: 2.15 nM
2 | dimeric VHH (VHH-5HVZ-MBP) R2B-E6 (VHH) VHH: QVQLVESGGGLVQPGGSLRLSCAASGGVTRGNAMAWYRQAPGKQREIVAAIDNGGSHAYGDSVKGRFTISRDNAKNTVYLQMNSLKPEDTAVYYCAVFPDHDSEQASIDRVYWGQGTQVTVSS |  |  |  |  |  |  |  | Pseudovirus inhibition IC50 [8]: 358 nM
3 | PP1897 Cerberbody (3-S3b-C8) (other, not shown: large carriers) chain 1: QVQLVESGGGLVQPGGSLRLSCAASGSIENIERMHWYRQAPGKQRELVAVIDSGGTTRYADSVKGRFTISRDNAKNTVYLQMNSLKPEDTAVYYCAAVWLTNAESTQEYWGQGTQVTVSSHHHHHH chain 2: QVQLVESGGGLVQPGGSLRLSCAASGSIENIERMHWYRQAPGKQRELVAVIDSGGTTRYADSVKGRFTISRDNAKNTVYLQMNSLKPEDTAVYYCAAVWLTNAESTQEYWGQGTQVTVSSTVILEYAHRLSQDILSDALQQWASHHHHHHHH |  |  |  |  |  |  |  | Pseudovirus neutralization IC50 [9]: 0.09 nM
4 | PP1131 MBP-4B0F-PAPA-R2b-D5-H6 (VHH, Form: Heptamer) VHH: QVQLVESGGGLVQPGGSLRLSCAASGYADEINMVHWYRQAPGKGREFVAAIASGGSTFYADSVKGRFTISRDNAKNTVYLQMNSLKPEDTAVYYCAAIPRPSLSYAHDYAYWGQGTQVTVSS | -0.01 | 0.93 |  |  |  |  |  | Pseudovirus inhibition IC50 [8]: 0.89 nM
5 | MBP-R2B-D5-H6 (VHH, monomer) VHH: QVQLVESGGGLVQPGGSLRLSCAASGYADEINMVHWYRQAPGKGREFVAAIASGGSTFYADSVKGRFTISRDNAKNTVYLQMNSLKPEDTAVYYCAAIPRPSLSYAHDYAYWGQGTQVTVSS |  |  |  |  |  |  |  | Pseudovirus inhibition IC50 [8]: 176 nM
6 | PP1155 MPB-scTRP-PAPA-R2b-D5-H6 (VHH, Form: Trimer) VHH: QVQLVESGGGLVQPGGSLRLSCAASGYADEINMVHWYRQAPGKGREFVAAIASGGSTFYADSVKGRFTISRDNAKNTVYLQMNSLKPEDTAVYYCAAIPRPSLSYAHDYAYWGQGTQVTVSS | 0.01 | 0.634 |  |  |  |  |  | Pseudovirus inhibition IC50 [8]: 1.9 nM
7 | PP1147 MBP-5HVZ-PAPA-R5a-B7-H6 (VHH, Form: Dimer) VHH: QVQLVESGGGLVQPGGSLRLSCAASGAFFSYGAIHWFRQAPGKQREEVAAITSGGSTGYADSVKGRFTISRDNAKNTVYLQMNSLKPEDTAVYYCNAGVVWLPSNAAYNLWGQGTQVTVSS | 1.79 | 12.3 |  | 0.33 |  |  | 0.44 | Pseudovirus neutralization IC50 [9]: 1.13 nM; EC50 [5]: 0.49 nM
8 | PP1159 MPB-scTRP-PAPA-R5a-B7-H6 (VHH, Form: Trimer) VHH: QVQLVESGGGLVQPGGSLRLSCAASGAFFSYGAIHWFRQAPGKQREEVAAITSGGSTGYADSVKGRFTISRDNAKNTVYLQMNSLKPEDTAVYYCNAGVVWLPSNAAYNLWGQGTQVTVSS | 17.7 | 31.9 |  |  |  |  | 7.98 | Pseudovirus inhibition IC50 (second row with the same construct name) [Cont. 6] [10]: 215 nM
9 | PP1135 MBP-4B0F-PAPA-R5a-B7-H6 (VHH, Form: Heptamer) VHH: QVQLVESGGGLVQPGGSLRLSCAASGAFFSYGAIHWFRQAPGKQREEVAAITSGGSTGYADSVKGRFTISRDNAKNTVYLQMNSLKPEDTAVYYCNAGVVWLPSNAAYNLWGQGTQVTVSS | -0.03 | 0.533 |  |  |  |  | 2.13 | 
10 | PP900 MBP-5HVZ-R5a-F2-H6 (VHH, Form: Dimer) VHH: QVQLVESGGGLVQPGGSLRLSCAASGSISSIEAMSWFRQAPGKQREGVATMASGGDTSYADSVKGRFTISRDNAKNTVYLQMNSLKPEDTAVYYCAAQTYRPDTWGRYTFWGQGTQVTVSS | 18.3 | 29.6 |  | 34 | 340 | 709 | 59.3 | 
11 | PP1102 MBP-5HVZ-PAPA-RN-17-H6 (VHH, Form: Dimer) VHH: QVQLVESGGGLVQPGGSLRLSCAASGSMYSRAVMHWFRQAPGKEREGVASIGRTGDSYYADSVKGRFTISRDNAKNTVYLQMNSLKPEDTAVYYCAADNLDVVYGNRYWGQGTQVTVSS | 40.9 | ~5110 | 21.5 | 1.55 | 1.26 | 2 |  | 
12 | PP1153 MBP-5HVZ-PAPA-R5d-D4-H6 (VHH, Form: Dimer) VHH: QVQLVESGGGLVQPGGSLRLSCAASGSDFTINAMHWFRQAPGKQREFVATITSTSSTAYRDSVKGRFTISRDNAKNTVYLQMNSLKPEDTAVYYCAAFAVRDADTAGWTARDYWGQGTQVTVSS | 81.7 |  | 62.9 | 0.91 |  |  |  | EC50 [5]: 223 nM
13 | PP1106 MBP-5HVZ-PAPA-RN-21-H6 (VHH, Form: Dimer) VHH: QVQLVESGGGLVQPGGSLRLSCAASGLQTSDNAMHWFRQAPGKNRELVAGLTSGTSRNYGDSVKGRFTISRDNAKNTVYLQMNSLKPEDTAVYYCAAFPDVGDASSIGFVYWGQGTQVTVSS | 76.6 |  | 63.4 | 2.05 | 7.84 | 3.17 |  | 
14 | PP903 MBP-5HVZ-R1i-A11-H6 (VHH, Form: Dimer) VHH: QVQLVESGGGLVQPGGSLRLSCAASGSILQINAIHWFRQAPGKQREEVAAITSGGSTGYADSVKGRFTISRDNAKNTVYLQMNSLKPEDTAVYYCAATSTRGGLDSDYWGQGTQVTVSS | 38.4 | 56.7 |  | 0.28 |  |  | 50.4 | EC50 [5]: 0.26 nM
15 | PP899 MBP-5HVZ-R5a-B5-H6 (VHH, Form: Dimer) VHH: QVQLVESGGGLVQPGGSLRLSCAASGDDFIENAISWYRQAPGKGREWVAAVTLGGHSNYADSVKGRFTISRDNAKNTVYLQMNSLKPEDTAVYYCNYPVGIPAVAIDGRRSYGYWGQGTQVTVSS | 2.43 | 2.29 |  |  |  |  | 5.25 | 
16 | PP1146 MBP-5HVZ-PAPA-R2d-D3-H6 (VHH, Form: Dimer) VHH: QVQLVESGGGLVQPGGSLRLSCAASGHIFSINNAAWVRQAPGKSREGVATIHSGGGTYYSDSVKGRFTISRDNAKNTVYLQMNSLKPEDTAVYYCNAEVSTGAGSRGRVSDVYWGQGTQVTVSS | 32.8 | 36.2 | 6.62 |  |  |  |  | Pseudovirus inhibition IC50 [Cont. 1] [11]: 77 nM; Pseudovirus neutralization IC50 [9]: 4.17 nM
17 | PP1181 R2d-D3-PP7-H6 (VHH) VHH: QVQLVESGGGLVQPGGSLRLSCAASGHIFSINNAAWVRQAPGKSREGVATIHSGGGTYYSDSVKGRFTISRDNAKNTVYLQMNSLKPEDTAVYYCNAEVSTGAGSRGRVSDVYWGQGTQVTVSS | 1.57 | 6.95 |  |  |  |  |  | Pseudovirus inhibition IC50 [Cont. 1] [11]: 5.61 nM
18 | PP934 MBP-5HVZ-S3a-H2-H6 (VHH, Form: Dimer) VHH: QVQLVESGGGLVQPGGSLRLSCAASGAAFSKNALHWFRQAPGKGREWVASITSGSGTQYMDSVKGRFTISRDNAKNTVYLQMNSLKPEDTAVYYCAALAYSGGYDYWGQGTQVTVSS |  |  | 46300 | 1.56 | 4.78 | 13.5 |  | 
19 | PP1103 MBP-5HVZ-PAPA-RN-18-H6 (VHH, Form: Dimer) VHH: QVQLVESGGGLVQPGGSLRLSCAASGYYFQIVAMHWYRQAPGKEREGVAGITSTGSTYYGDSVKGRFTISRDNAKNTVYLQMNSLKPEDTAVYYCNAVSTDAQGAAEYWGQGTQVTVSS | 57.6 |  |  | 1.45 | 92.8 | 227 |  | Pseudovirus neutralization IC50 [9]: 2.49 nM; EC50 [5]: 2.69 nM
